Assay results taken from the DeepSol protein solubility set.

Test: soluble on expression in E. coli; label from the status in PepcDB or PDB records

Sequence	soluble on expression in E. coli
MLIERIYDEDLAQASYFIGCQAHNTAVVVDPRRDIAVYLDMAKKNGMEIVGVTETHIHADYLSGTRELAAATNATMYVSGEGGADWQYEFDAERICDGSEIRLGNLVLTAVHTPGHTPEHLSFLLKDGAFADEPGFMLTGDFVFAGDLGRPDLLDEAAGGVDTRFEGARQMFKSLKEKFLTLPDHIQIFPGHGSGSACGKALGSVPSTTLGYERQFAWWGKYLEADDEQGFIDELLEGQPDAPAYFGRMKRQNRQGPAIMGARELLPQLEASDLHDVIVVDTRSADEVHQGTVAGAVNIPAGNSMAKFGSWTVDPEKDSRALVLLAASQIGAMEMWDHMVRVGIDNVAGFITNFDGVDLVAPQTVSPDQLDELEYDLLLDVRNRSEVEEGYIPGALHINGASVLWNLEKLPRDGKIVSYCKSGTRSSIAASTLRNAGFDVVELQGSYDNWVRHNAQLEHHHHHH	not soluble
MKDNRYSPDWPQLALQKKQAVGWVCERCGVQCLKPGEGKGLLKEERYRLRMAVHHCDYDPSNNSPSNLMALCSPCHLHYHQRQRGNVTPGQLSLGFVYRSCLVCAQQLEHHHHHH	not soluble
METESWKLLESSIIYYEGNPIGTVAAQDPELAALNYDQCFLRDFVPSAFVFLMDGQTDIVRNFLIETLTLQSHEKEMDCFQPGAGLMPASFKVESDGSKEYLVADFGEKAIARVPPVDSCMWWILLLRAYEKATGDLTLAREPKFQAGIKLILDLCLAHRFSMYPTMLVPDGAFMIDRRMGVYEHPLEIQVLFYAALRAARELLLPDGDGEQYLNKVHGRLGALQYHIRNYYWVDLKRLREIYRYKGNEFGKEIANKFNIFSQSIPDWVIEWLPEKGGYLAGNLGPGRMDFRFFALGNLMAILAGLASEEESQRIMNLFAHRWEDLIGYMPVKICYPALQGLEWQIVTGCDPKNIPWSYHNGGNWPVLLWLFTAAALKTGKVELAHEAIAIAEGRLSNDKFPEYYDGNNGRLIGKEARIYQTWSIAGLLVAKQFLANPDHVEFISFPDTFIGPGCSLLEHHHHHH	soluble
MGSDKIHHHHHHMMKLSTMKKVVATVDKKWRSPLAEFILERWGFDRHSVFYWRASANFIFMFQHHGKKYYLRFNDSCERNLTLIKEELKLVQYLGSQALAIAQPVLSKNNNLVEVVITPIGTFYAVVFEALDGEHLSFEEMNEEQLFLWGEMLGTIHENLKNVPNDLAIKRPSWKDDLEKVKEWIPSNEIAAMKELEMISEWADQLPITKENFGIIHYDFELDNVRFNEITIGALDFDDCAYYWYVADIVYALRDAGKFRVTTPAIKTFIKGYKSSTFLEEELLEEANGFERLHHLVSFARLLRSVDKDYSKEEPGYLMDLRKNLVSLINNYRLSFEQNHK	not soluble
SNAMKQLTILGSTGSIGNSTLSVVRANPELFKVTALVAGRNVREMAQQCLEFSPRYAAMSDEHSAKSLRLLLAEQGSDTEVYSGETAACELAALDDVDQVMAAIVGIAGLPSTLAAIRAGKQVLLANKESLITCGKLFMDEVKRSRAQLLPIDSEHNAIFQSLPERIQRQLGYSSLNENGVSRIILTGSGGPFRETPLSQFSDVTPDQACAHPNWSMGRKISVDSATMMNKGLEYIEARWLFNASAEQIEVVLHPQSVIHSMVRYHDGSILAQMGTPDMRTPIAHAMAYPMRVSSGVAPLDFCKVGALTFTTPDYQRYPCLKLAIDACNAGQAATTALNAANEISVMAFLDSKIRFTDIEVINRTVVEGLLLSEPTSVEEVLVIDRKARDVAAQVIAKLNN	soluble
MSLARSVVVSAEAVYSHEGEYVGDHVLVDEGLVKSISRGEPHVSVGKRVAVKGFLLPPLVDAHLHMRSLGASFRIVNLKGASSPEEVAKRLAAANSPIAVGRGWNEEEFRPGSRLDRRILDSYLGEKPALAVRICGHVAVANSAFIRESGVDKLFPNLVDRERGLLLEDAVSYAVSVAMKTYNNEELLRDAASALASVGVFGVSSMACSEEEVRALSLIGDALEVRVACYLRRGVEPPPKRAGARWSIVGVKLFADGSLGGRTAYLRRPYISGENEGWRGLKLLSSRDIAEEAVSNSHRGLATAVHAIGDAALDEVLEGFSNAISRGVEPGMLRVEHASLAWPNQIDRLASLRVWTVVQPLFRVSDWWLESRVGSDMLQAAYPFASMLRAGVKLALSTDAPVETYDPAETFKAAVGLCSSRLCRESESLTPRETLKLYTLNSALASGGPVAWLGRLRRGAPALFAVANVDVLNSGRKELEKLKFRGLNLAKEGHHHHHH	soluble
MGSDKIHHHHHHASEPVSVASTPETDEIDQLFDDMQLDGIVSYTAFRQAVTGYQKIEQKSKSIMTLIDFSKPSTEKRLYVLDMKNKKLLYTSVVSHGKNSGGNYATSFSNKNGSYKSSLGFYLTENTYQGRNGYSLVLNGLEKGINDQAKQRAIVMHGAAYANPNITASAGRLGRSLGCPALPQALAKPIIDTIKKGSVLFIYANNKDYLANSTFLSPRQTEYLSWAQPAN	not soluble
MLKSVLDALENGRLVELPDNDKSDALQFLATILEAVPSIPAGSNIVEIVLEHEKNSNTSLGFGWACPHARVNFDGDLCCAIGWSPAGIDYGIAGEPLVRLVVMFFVPENQRNTYLKEVSTLARVLKSNPEFQNLEPIGDLDQVRNTLLDMTHQAMSEGGKNYRARMIQLDTLTKSAGDAGHYWLKGMQIDALLVVAGPDIKPLVLSQNAELSRLATQDTQLVPAIASGNHYELQGWQIVRRSSTAYAGERVIYDCLAIKTRQGQGAPEAGG	soluble
MTALFCLELRTNIFLIMNDCIIINYWKGFIFSFHSYFFPFRFESSLRAHYPGKRNYSDFSVIPLPYYIDVRSFHICESQHIIALPLQIPLPYRMLIRMYPV	soluble
MELLQGKTFVVMGVANQRSIAWGIARSLHNAGAKLIFTYAGERLERNVRELADTLEGQESLVLPCDVTNDEELTACFETIKQEVGTIHGVAHCIAFANRDDLKGEFVDTSRDGFLLAQNISAFSLTAVAREAKKVMTEGGNILTLTYLGGERVVKNYNVMGVAKASLEASVKYLANDLGQHGIRVNAISAGPIRTLSAKGVGDFNSILREIEERAPLRRTTTQEEVGDTAVFLFSDLARGVTGENIHVDSGYHILG	soluble
MLEEPFFPYQSLASDLLAFLPEDSTDGSHDLSHIHRVWMNVRRLQDKEGGDLEALLAATLLHDCVAVEKNSPLRSQASTLSANKAASILQRMGWPAPRIELVAHAVQAHSFSAGVEPLTLEARILQDSDRLDAIGMIGVARCFYIAGRMGSALYDITNPTAIGRPYQDKRFTIEHFHTKLLSLASGFQTVEGARLAAVRHARLKDFLDGFMEEIGAPDLEHHHHHH	soluble
MGDASTQLSSYVKQVQTGHKPSTKEIVRFSKLFEDQLALEHLDRPQLVALCKLLELQTFGTNNLLRFQLLMKLKSIKADDEIIAKEGVTALSVSELQAACRARGMRSLGLTEEQLRQQLTEWQDLHLKENVPPSLLLLSRTFYLIDVKPKPIEIPLSGEAPKTDILVELPTFTESKENMVDLAPQLKGTKDEDFIQPPPVTSSPITPSTPISLPKGPITSSEEPTLQAKSQMTAQNSKASSKGA	soluble
MEEWDVPQMKKEVESLKYQLAFKREMSSKTIPELLKWIEDGIPKDPFLNPDLMKNNPWVEKAKCTIL	not soluble
SLRKIANSITEPIEQLVTAMKSVQHSGIEAGVSLSLPEHTQDEAGMLNRHFTVMMKRINELMEENVEKQLIIKETELKALQAQINPHFLYNTLESINWLAKANQQKQISKMVESLGFLLRNSIHMKKDIVTIQEEADIVRHYMTIQRFRFEERLKFTLDIDDEVKHCLIPKLTLQPLAENAIQYALEPFTRPCAIRIQAKKAKGCVCITVEDNGPGMDGRILESTGGRGIGLWNIRERISLTFGEPYGLRIHSEHEKGTRIVITIPCRNEVV	soluble
MTIKNVICDIDGVLMHDNVAVPGAAEFLHGIMDKGLPLVLLTNYPSQTGQDLANRFATAGVDVPDSVFYTSAMATADFLRRQEGKKAYVVGEGALIHELYKAGFTITDVNPDFVIVGETRSYNWDMMHKAAYFVANGARFIATNPDTHGRGFYPACGALCAGIEKISGRKPFYVGKPSPWIIRAALNKMQAHSEETVIVGDNLRTDILAGFQAGLETILVLSGVSSLDDIDSMPFRPSWIYPSVAEIDVI	soluble
AIAVHQASPVKNISDTRPKRSPEYWYYYCTYEDNSVKSPLVPGLKVETQAVADRFSADIFSAVERYNQLFSEVQKQSFKYVPEEESDNQSN	soluble
MSLILIKNVSYYIDNNLNVHENCDILIEKVENSEIKLTTGKNLLEKLNLNQNDLKIISGEKKCAIPGLYNAHTHVPMTLLRGIADDMILQDWLNQKIWPNEAKLNKNDVYYGSLLGCLEMLRFGVTSFNEMYFFSEEILKATKEIGLNAQVSYPIIDFGTPEEQSIDKLLTSAESFVKNNVGEKNIKVGIAPHAPYTCSEETYQKCSEISNDYNVNMHTHVSETRYEVVELENKIGMRPVEYLEKIGVLNEKLHAAHCVWITKDEAKKLAKNNAKVLHCPTSNMKLASGGVMPLFELLEYGADISVGTDGPASNNNLDILKEMKMTSLLHKAHRWDPTVAGIDTVLKMGINSESIEIKNNDIILIDLDSAHLRPFNNIKSNIVYSAFGNDVDTVIVGGNILLENKKYKFSETFISNIYKNIQKITEKFEEGHHHHHH	not soluble
MIGGSLDAFIGSVHRMAAALDGTIELVCGAFSSNAARSIQTGEALHLPKERIYASYEEMIVQEAQLPADVRMQFVSIVTPNHLHAQPALLALKHGFHVLCEKPLAFSVAEAEQLGIQVKETGLLFGLTHTYTAYPMVKEARDLIAKGKLGTIRKIIVEYPQGWLSAPIESDGQKQAGWRTDPAQAGLSCCVGDIGTHAENIAEYITGLKITELSADVSSVVAGRKLDDDANILLRFDNGAKGVLIASQIANGEENELKIRVYGEHAGLEWLQSEPNTLIVKQNDQPTQLRRAGANHSYLSEHARLHCRIPAGHPEGYIEAMANIYRNFSKAVHSFEDQITHNPLLDYPTIEDGIRGMKFIETVIISGKENATWKQLLEHHHHHH	soluble
MGSDKIHHHHHHMSQILLIHSSVHGYTQKICEYLQRQLIEQDQLVTVASLAEAPDLALFDKVYIGASIRHGKHRPALYQFIEDHRAELDNKPSGFFSVSLVARKPNKNTPQTNSYMQQFLSQSPWQPKLLQVFGGNLDYQGYGAMDRNIIRFIMWLTKGPTDPNTKVEFTDWQKVDEFAQQIIEA	not soluble
MVSVSVVIATLKPRDEIEAIQCLEDQTFDDFEVIVCDKSPVTRARNEGIRQSSSDKIVFLDDDSRPQPGYLEKANDVLETEAAYAGRTIHPVDDVFARHFTAHYDWGGDPCYVDHFWGCNMGVHRDVFKTVGGWDEEMGWGHEEKELARRVRSEFDIRYDPELVVDHPYASSITDYWKKQYKLETKSPYYWSKCNVSRADQLKNIFCETFDPLNYVRITPVATMIEAGSTVAKTAGRLRGFLDHTHHEEGRGGVPDIDRPSQSPERSGLEHHHHHH	not soluble
MSLTKSGLAHAAGVSTSVIDGLVKQGVFETVFLPAPPVVAEPDPDYVEPRLEGPQKQAASEIIEDVRKGGFHVSLIDGVTGSGKTEVYFEAVAETLRQGKQVLILLPEIALTAAFLERFQDRFGAKPAEWHSDLSPRMREKVWRQAVTGEIKVVAGARSALFLPFDNLGLIIVDEEHDPAYKQEDRVFYNARDMAVVRARIAEFPVVLVSATPSVESQVNGSSGRYNTIHLHTRFGDAAMPDLHLVDMRRHPPERGGFLSPVLLRGIGKTIEKGEQSLLFLNRRGYAPLTLCRVCGHRFQCPQCSSWLVEHRFRNQLQCHQCGHNEPTPDHCPECGTFDHLVACGPGVERIAEEVEKHFPEARTIVLSSDLMGVKRLRLELEAIVKGEADIVIGTQLVAKGHNFPLMTLVGIVDADLGLANGDPRAAERTFQLLSQVTGRAGRTGLKSHGLLQTYQPQHPVMQAIVSGDASAFYEREIVEREKAVLPPFGRLASIIVSADTRAEAETHARGLRAAAPQVTGIMLLGPAEAPLALIRGRHRFRLLVHGRRNSDMQSFLRTLLASGPKERGSVHVQLDIDPQSFLEGHHHHHH	not soluble
